Assay results: patent US10138493

How the values were obtained:
Experiment in all cases: cell_activity
[1] = test system: synTF ZF 1-3; conditions: 1x reporter, HEK293FT; KRAB and HP1 fusions also repress (p284, p286)
[2] = test system: synTF ZF 5-7; conditions: 1x reporter, HEK293FT; KRAB and HP1 fusions also repress
[3] = test system: synTF ZF 4-8; conditions: 1x reporter, HEK293FT; KRAB and HP1 fusions also repress
[4] = test system: synTF ZF 3-5; conditions: 1x reporter, HEK293FT; KRAB and HP1 fusions also repress
[5] = test system: synTF ZF 2-6; conditions: 1x reporter, HEK293FT; KRAB and HP1 fusions also repress
[6] = test system: synTF ZF 8-1; conditions: 1x reporter, HEK293FT; KRAB and HP1 fusions also repress
[7] = test system: synTF ZF 6-4; conditions: 1x reporter, HEK293FT; KRAB and HP1 fusions also repress
[8] = test system: synTF ZF 7-3; conditions: 1x reporter, HEK293FT; KRAB and HP1 fusions also repress
[9] = test system: synTF ZF 9-2; conditions: 1x reporter, HEK293FT; KRAB and HP1 fusions also repress

“CGTCGAAGTCGAAGTCGACC (double strand) [Target 1]” gave an activity (fold GFP activation) [1] greater than 10.
“TGAAGCAGTCGACGCCGAAG (double strand) [Target 5]” gave an activity (fold GFP activation) [2] greater than 10.
Work on “GGACGACGCCGATGTAGAAG (double strand) [Target 4]” yielded an activity (fold GFP activation) [3] greater than 10.
“AGACGTCGAAGTAGCCGTAG (double strand) [Target 3]” showed an activity (fold GFP activation) [4] greater than 10.
“GGACGACGTTACGGACGTAC (double strand) [Target 2]” gave an activity (fold GFP activation) [5] greater than 10.
With “AGACGCAGTATAGGTCGAAC (double strand) [Target 8]” the activity (fold GFP activation) [6] was greater than 10.
For “GGACGACGCGGTCTAAGAAG (double strand) [Target 6]”, the activity (fold GFP activation) [7] was greater than 10.
In the case of “CGACGAGGTCGCATAAGTAG (double strand) [Target 7]”, the activity (fold GFP activation) [8] is reported as greater than 10.
Sequence “AGACGCAGTATAGGACGACG (double strand) [Target 9]” has an activity (fold GFP activation) [9] greater than 10.
